Measurements from PMC9726900 (2022).

Target: 46w60 nucleosome (recombinant human histone octamer on Widom 601 DNA with 46-bp and 60-bp flanks), … (human, UniProt P0C0S8 1-130; P62807 1-126; P68431 1-136; P62805 1-103)
Experiment: MST

| Kd [nM] | Binder |
| --- | --- |
| 430 | CHD4(1–1380) (domain or fragment) MASGLGSPSPCSAGSEEEDMDALLNNSLPPPHPENEEDPEEDLSETETPKLKKKKKPKKPRDPKIPKSKRQKKERMLLCRQLGDSSGEGPEFVEEEEEVALRSDSEGSDYTPGKKKKKKLGPKKEKKSKSKRKEEEEEEDDDDDSKEPKSSAQLLEDWGMEDIDHVFSEEDYRTLTNYKAFSQFVRPLIAAKNPKIAVSKMMMVLGAKWREFSTNNPFKGSSGASVAAAAAAAVAVVESMVTATEVAPPPPPVEVPIRKAKTKEGKGPNARRKPKGSPRVPDAKKPKPKKVAPLKIKLGGFGSKRKRSSSEDDDLDVESDFDDASINSYSVSDGSTSRSSRSRKKLRTTKKKKKGEEEVTAVDGYETDHQDYCEVCQQGGEIILCDTCPRAYHMVCLDPDMEKAPEGKWSCPHCEKEGIQWEAKEDNSEGEEILEEVGGDLEEEDDHHMEFCRVCKDGGELLCCDTCPSSYHIHCLNPPLPEIPNGEWLCPRCTCPALKGKVQKILIWKWGQPPSPTPVPRPPDADPNTPSPKPLEGRPERQFFVKWQGMSYWHCSWVSELQLELHCQVMFRNYQRKNDMDEPPSGDFGGDEEKSRKRKNKDPKFAEMEERFYRYGIKPEWMMIHRILNHSVDKKGHVHYLIKWRDLPYDQASWESEDVEIQDYDLFKQSYWNHRELMRGEEGRPGKKLKKVKLRKLERPPETPTVDPTVKYERQPEYLDATGGTLHPYQMEGLNWLRFSWAQGTDTILADEMGLGKTVQTAVFLYSLYKEGHSKGPFLVSAPLSTIINWEREFEMWAPDMYVVTYVGDKDSRAIIRENEFSFEDNAIRGGKKASRMKKEASVKFHVLLTSYELITIDMAILGSIDWACLIVDEAHRLKNNQSKFFRVLNGYSLQHKLLLTGTPLQNNLEELFHLLNFLTPERFHNLEGFLEEFADIAKEDQIKKLHDMLGPHMLRRLKADVFKNMPSKTELIVRVELSPMQKKYYKYILTRNFEALNARGGGNQVSLLNVVMDLKKCCNHPYLFPVAAMEAPKMPNGMYDGSALIRASGKLLLLQKMLKNLKEGGHRVLIFSQMTKMLDLLEDFLEHEGYKYERIDGGITGNMRQEAIDRFNAPGAQQFCFLLSTRAGGLGINLATADTVIIYDSDWNPHNDIQAFSRAHRIGQNKKVMIYRFVTRASVEERITQVAKKKMMLTHLVVRPGLGSKTGSMSKQELDDILKFGTEELFKDEATDGGGDNKEGEDSSVIHYDDKAIERLLDRNQDETEDTELQGMNEYLSSFKVAQYVVREEEMGEEEEVEREIIKQEESVDPDYWEKLLRHHYEQQQEDLARNLGKGKRIRKQVNYNDGSQEDRDWQDDQSDNQSDYSVASEEGDEDFDER |
| 250 | CHD4(1–1230) (domain or fragment) MASGLGSPSPCSAGSEEEDMDALLNNSLPPPHPENEEDPEEDLSETETPKLKKKKKPKKPRDPKIPKSKRQKKERMLLCRQLGDSSGEGPEFVEEEEEVALRSDSEGSDYTPGKKKKKKLGPKKEKKSKSKRKEEEEEEDDDDDSKEPKSSAQLLEDWGMEDIDHVFSEEDYRTLTNYKAFSQFVRPLIAAKNPKIAVSKMMMVLGAKWREFSTNNPFKGSSGASVAAAAAAAVAVVESMVTATEVAPPPPPVEVPIRKAKTKEGKGPNARRKPKGSPRVPDAKKPKPKKVAPLKIKLGGFGSKRKRSSSEDDDLDVESDFDDASINSYSVSDGSTSRSSRSRKKLRTTKKKKKGEEEVTAVDGYETDHQDYCEVCQQGGEIILCDTCPRAYHMVCLDPDMEKAPEGKWSCPHCEKEGIQWEAKEDNSEGEEILEEVGGDLEEEDDHHMEFCRVCKDGGELLCCDTCPSSYHIHCLNPPLPEIPNGEWLCPRCTCPALKGKVQKILIWKWGQPPSPTPVPRPPDADPNTPSPKPLEGRPERQFFVKWQGMSYWHCSWVSELQLELHCQVMFRNYQRKNDMDEPPSGDFGGDEEKSRKRKNKDPKFAEMEERFYRYGIKPEWMMIHRILNHSVDKKGHVHYLIKWRDLPYDQASWESEDVEIQDYDLFKQSYWNHRELMRGEEGRPGKKLKKVKLRKLERPPETPTVDPTVKYERQPEYLDATGGTLHPYQMEGLNWLRFSWAQGTDTILADEMGLGKTVQTAVFLYSLYKEGHSKGPFLVSAPLSTIINWEREFEMWAPDMYVVTYVGDKDSRAIIRENEFSFEDNAIRGGKKASRMKKEASVKFHVLLTSYELITIDMAILGSIDWACLIVDEAHRLKNNQSKFFRVLNGYSLQHKLLLTGTPLQNNLEELFHLLNFLTPERFHNLEGFLEEFADIAKEDQIKKLHDMLGPHMLRRLKADVFKNMPSKTELIVRVELSPMQKKYYKYILTRNFEALNARGGGNQVSLLNVVMDLKKCCNHPYLFPVAAMEAPKMPNGMYDGSALIRASGKLLLLQKMLKNLKEGGHRVLIFSQMTKMLDLLEDFLEHEGYKYERIDGGITGNMRQEAIDRFNAPGAQQFCFLLSTRAGGLGINLATADTVIIYDSDWNPHNDIQAFSRAHRIGQNKKVMIYRFVTRASVEERITQVAKKKMMLTHLVVRPGLGSKTGSMSKQELDDILKFGTEELFKDE |
| 210 | CHD4(1–1540) (domain or fragment) MASGLGSPSPCSAGSEEEDMDALLNNSLPPPHPENEEDPEEDLSETETPKLKKKKKPKKPRDPKIPKSKRQKKERMLLCRQLGDSSGEGPEFVEEEEEVALRSDSEGSDYTPGKKKKKKLGPKKEKKSKSKRKEEEEEEDDDDDSKEPKSSAQLLEDWGMEDIDHVFSEEDYRTLTNYKAFSQFVRPLIAAKNPKIAVSKMMMVLGAKWREFSTNNPFKGSSGASVAAAAAAAVAVVESMVTATEVAPPPPPVEVPIRKAKTKEGKGPNARRKPKGSPRVPDAKKPKPKKVAPLKIKLGGFGSKRKRSSSEDDDLDVESDFDDASINSYSVSDGSTSRSSRSRKKLRTTKKKKKGEEEVTAVDGYETDHQDYCEVCQQGGEIILCDTCPRAYHMVCLDPDMEKAPEGKWSCPHCEKEGIQWEAKEDNSEGEEILEEVGGDLEEEDDHHMEFCRVCKDGGELLCCDTCPSSYHIHCLNPPLPEIPNGEWLCPRCTCPALKGKVQKILIWKWGQPPSPTPVPRPPDADPNTPSPKPLEGRPERQFFVKWQGMSYWHCSWVSELQLELHCQVMFRNYQRKNDMDEPPSGDFGGDEEKSRKRKNKDPKFAEMEERFYRYGIKPEWMMIHRILNHSVDKKGHVHYLIKWRDLPYDQASWESEDVEIQDYDLFKQSYWNHRELMRGEEGRPGKKLKKVKLRKLERPPETPTVDPTVKYERQPEYLDATGGTLHPYQMEGLNWLRFSWAQGTDTILADEMGLGKTVQTAVFLYSLYKEGHSKGPFLVSAPLSTIINWEREFEMWAPDMYVVTYVGDKDSRAIIRENEFSFEDNAIRGGKKASRMKKEASVKFHVLLTSYELITIDMAILGSIDWACLIVDEAHRLKNNQSKFFRVLNGYSLQHKLLLTGTPLQNNLEELFHLLNFLTPERFHNLEGFLEEFADIAKEDQIKKLHDMLGPHMLRRLKADVFKNMPSKTELIVRVELSPMQKKYYKYILTRNFEALNARGGGNQVSLLNVVMDLKKCCNHPYLFPVAAMEAPKMPNGMYDGSALIRASGKLLLLQKMLKNLKEGGHRVLIFSQMTKMLDLLEDFLEHEGYKYERIDGGITGNMRQEAIDRFNAPGAQQFCFLLSTRAGGLGINLATADTVIIYDSDWNPHNDIQAFSRAHRIGQNKKVMIYRFVTRASVEERITQVAKKKMMLTHLVVRPGLGSKTGSMSKQELDDILKFGTEELFKDEATDGGGDNKEGEDSSVIHYDDKAIERLLDRNQDETEDTELQGMNEYLSSFKVAQYVVREEEMGEEEEVEREIIKQEESVDPDYWEKLLRHHYEQQQEDLARNLGKGKRIRKQVNYNDGSQEDRDWQDDQSDNQSDYSVASEEGDEDFDERSEAPRRPSRKGLRNDKDKPLPPLLARVGGNIEVLGFNARQRKAFLNAIMRYGMPPQDAFTTQWLVRDLRGKSEKEFKAYVSLFMRHLCEPGADGAETFADGVPREGLSRQHVLTRIGVMSLIRKKVQEFEHVNGRWSMPELAEVEENKKMSQPGSPSPKT |
| 150 | CHD4(1–1810) (domain or fragment) MASGLGSPSPCSAGSEEEDMDALLNNSLPPPHPENEEDPEEDLSETETPKLKKKKKPKKPRDPKIPKSKRQKKERMLLCRQLGDSSGEGPEFVEEEEEVALRSDSEGSDYTPGKKKKKKLGPKKEKKSKSKRKEEEEEEDDDDDSKEPKSSAQLLEDWGMEDIDHVFSEEDYRTLTNYKAFSQFVRPLIAAKNPKIAVSKMMMVLGAKWREFSTNNPFKGSSGASVAAAAAAAVAVVESMVTATEVAPPPPPVEVPIRKAKTKEGKGPNARRKPKGSPRVPDAKKPKPKKVAPLKIKLGGFGSKRKRSSSEDDDLDVESDFDDASINSYSVSDGSTSRSSRSRKKLRTTKKKKKGEEEVTAVDGYETDHQDYCEVCQQGGEIILCDTCPRAYHMVCLDPDMEKAPEGKWSCPHCEKEGIQWEAKEDNSEGEEILEEVGGDLEEEDDHHMEFCRVCKDGGELLCCDTCPSSYHIHCLNPPLPEIPNGEWLCPRCTCPALKGKVQKILIWKWGQPPSPTPVPRPPDADPNTPSPKPLEGRPERQFFVKWQGMSYWHCSWVSELQLELHCQVMFRNYQRKNDMDEPPSGDFGGDEEKSRKRKNKDPKFAEMEERFYRYGIKPEWMMIHRILNHSVDKKGHVHYLIKWRDLPYDQASWESEDVEIQDYDLFKQSYWNHRELMRGEEGRPGKKLKKVKLRKLERPPETPTVDPTVKYERQPEYLDATGGTLHPYQMEGLNWLRFSWAQGTDTILADEMGLGKTVQTAVFLYSLYKEGHSKGPFLVSAPLSTIINWEREFEMWAPDMYVVTYVGDKDSRAIIRENEFSFEDNAIRGGKKASRMKKEASVKFHVLLTSYELITIDMAILGSIDWACLIVDEAHRLKNNQSKFFRVLNGYSLQHKLLLTGTPLQNNLEELFHLLNFLTPERFHNLEGFLEEFADIAKEDQIKKLHDMLGPHMLRRLKADVFKNMPSKTELIVRVELSPMQKKYYKYILTRNFEALNARGGGNQVSLLNVVMDLKKCCNHPYLFPVAAMEAPKMPNGMYDGSALIRASGKLLLLQKMLKNLKEGGHRVLIFSQMTKMLDLLEDFLEHEGYKYERIDGGITGNMRQEAIDRFNAPGAQQFCFLLSTRAGGLGINLATADTVIIYDSDWNPHNDIQAFSRAHRIGQNKKVMIYRFVTRASVEERITQVAKKKMMLTHLVVRPGLGSKTGSMSKQELDDILKFGTEELFKDEATDGGGDNKEGEDSSVIHYDDKAIERLLDRNQDETEDTELQGMNEYLSSFKVAQYVVREEEMGEEEEVEREIIKQEESVDPDYWEKLLRHHYEQQQEDLARNLGKGKRIRKQVNYNDGSQEDRDWQDDQSDNQSDYSVASEEGDEDFDERSEAPRRPSRKGLRNDKDKPLPPLLARVGGNIEVLGFNARQRKAFLNAIMRYGMPPQDAFTTQWLVRDLRGKSEKEFKAYVSLFMRHLCEPGADGAETFADGVPREGLSRQHVLTRIGVMSLIRKKVQEFEHVNGRWSMPELAEVEENKKMSQPGSPSPKTPTPSTPGDTQPNTPAPVPPAEDGIKIEENSLKEEESIEGEKEVKSTAPETAIECTQAPAPASEDEKVVVEPPEGEEKVEKAEVKERTEEPMETEPKGAADVEKVEEKSAIDLTPIVVEDKEEKKEEEEKKEVMLQNGETPKDLNDEKQKKNIKQRFMFNIADGGFTELHSLWQNEERAATVTKKTYEIWHRRHDYWLLAGIINHGYARWQDIQNDPRYAILNEPFKGEMNRGNFLEIKNKFLARRFKLLEQALVIEEQLRRAAYLNMSED |
